Results on 7 molecules are retold here after patent publication US20240199727A1 (INVETX, published 2024).

Assay [1] addresses canine NGF tagged at the C-terminus with the Flag tag (canine). The experiment in a line: SPR, Biacore T200; antibody captured on anti-feline CM5 chip, NGF analyte, 1:1 fit.
For assay [2], the target named is T1, canine NGF tagged at the C-terminus with the Flag tag (canine, UniProt A0A8I3PYI3 122-241).
T1 construct: mature; also called feline NGF (processed form identical)
The experiment in a line: SPR competition; Ab pre-incubated with 50 nM NGF at Ab to NGF ratio 1 to 1, injected over captured feline p75 (competitor).
T1 sequence (A0A8I3PYI3 entry or part of it): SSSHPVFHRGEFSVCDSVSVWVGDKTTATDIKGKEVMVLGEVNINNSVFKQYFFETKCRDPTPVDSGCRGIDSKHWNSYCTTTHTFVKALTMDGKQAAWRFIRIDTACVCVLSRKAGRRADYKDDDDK

Assay [3] addresses T1, canine NGF tagged at the C-terminus …. Briefly: SPR competition; Ab pre-incubated with 50 nM NGF at Ab to NGF ratio 5 to 1, injected over captured feline p75 (competitor).
The target is the same in assay [4]. The experiment in a line: SPR competition; Ab pre-incubated with 10 nM NGF at Ab to NGF ratio 10 to 1, injected over captured feline TrkA (competitor).
Target sequence in this assay (A0A8I3PYI3 entry or part of it): as above
For assay [5] the target is unchanged. Briefly: SPR competition; Ab pre-incubated with 10 nM NGF at Ab to NGF ratio 50 to 1, injected over captured feline TrkA (competitor).
Target sequence in this assay (A0A8I3PYI3 entry or part of it): as above
Assay [6] has as its target T2, canine NGF tagged at the C-terminus with the Flag tag (canine, UniProt A0A8I3PYI3 122-241).
T2 construct: Baculovirus expression
Briefly: SPR Biacore T200; antibody captured on protein A chip, NGF analyte.
T2 sequence (A0A8I3PYI3 entry or part of it): as above
Method: The running buffer was HBS-EP buffer (10 mM HEPES, pH 7.4, 150 mM NaCl, 3 mM EDTA, 0.005% tween 20) and the instrument temperature was set at 25 °C. […] The binding signals were corrected for the blank and the resulting sensorgram (FIG. 5) was used to determine the rate constants (kₐ and kd) and binding affinity (KD) using a one-to-one binding model with the BIAEVAL software.

canine NGF tagged at the C-terminus with the Flag tag (canine), sequence (chain, as listed by the source): as the sequence (A0A8I3PYI3 entry or part of it) above

B1: SC-184_76 (antibody, from a related filing, V domains shown)
VH: DVQLVESGGDLVKPGGSLRLTCVASGLSLTSDSMSWVRQAPGKGLQWVSTLWSNGGTYYTDSVKGRFTISKDNAENTLYLQMNNLKTEDTATYYCASIYYYEADYLHWYFDFWGQGALVTVSS
VL: EIQMTQSPTSLSASVGDRVTITCRASEGIANNLSWYQQTPGKAPKLLIYATSNLHSGVPSRFSGSGSGTDFTLTISSLQPEDFATYYCQQGFKWPLTFGGGTKLEIT
In assay [1], B1 yielded an equilibrium dissociation constant (Kd) of 0.472 nM, a koff of 0.000396 s⁻¹ and an on-rate (kon) of 838000 M⁻¹ s⁻¹.

B2: SC-184_76-Arg (antibody, V domains shown)
VH: DVQLVESGGDLVKPGGSLRLTCVASGLSLTSDSMSWVRQAPGKGLQWVSTLWSNRGTYYTDSVKGRFTISKDNAENTLYLQMNNLKTEDTATYYCASIYYYEADYLHWYFDFWGQGALVTVSS
VL: EIQMTQSPTSLSASVGDRVTITCRASEGIANNLSWYQQTPGKAPKLLIYATSNLHSGVPSRFSGSGSGTDFTLTISSLQPEDFATYYCQQGFKWPLTFGGGTKLEIT
On to B2, for which the “% Block” value in assay [2] came out at 100%; in assay [3], 100%; in assay [4], 99%; in assay [5] it was 100%.

B3: felinized clone 101 (antibody, V domains shown)
VH: DVQLVESGGDLVKPGGSLRLTCVASGLSLTSSSMSWVRQAPGKGLQWVSTIYSNGGTYYTDSVKGRFTISKDNAENTLYLQMNNLKTEDTATYYCASIYYYDADYLHWYFDFWGQGALVTVSS
VL: EIQMTQSPTSLSASVGDRVTITCRASEGISNNLSWYQQTPGKAPKLLIYATSNLHSGVPSRFSGSGSGTDFTLTISSLQPEDFATYYCQQGYKWPLTFGGGTKLEIT
Turning to B3, the “% Block” value in assay [2] is 42%; in assay [3], 87%; in assay [4], 15%; in assay [5], 76%.

B4: SC-184_110 (antibody, from a related filing, IgG1a, V domains shown)
VH: DVQLVESGGDLVKPGGSLRLTCVASGLSLTSASMSWVRQAPGKGLQWVSTIYSNGGTYYTDSVKGRFTISKDNAENTLYLQMNNLKTEDTATYYCASIYYYEAEYLHWYFDFWGQGALVTVSS
VL: EIQMTQSPTSLSASVGDRVTITCRASEGISKNLSWYQQTPGKAPKLLIYATDNLHSGVPSRFSGSGSGTDFTLTISSLQPEDFATYYCQQGWKWPLTFGGGTKLEIT
In assay [1], B4 returned a Kd of 0.773 nM, a dissociation rate constant (koff) of 0.00038 s⁻¹ and an association rate constant (kon) of 492000 M⁻¹ s⁻¹.

B5: SC-184_110-Arg (antibody, V domains shown)
VH: DVQLVESGGDLVKPGGSLRLTCVASGLSLTSASMSWVRQAPGKGLQWVSTIYSNRGTYYTDSVKGRFTISKDNAENTLYLQMNNLKTEDTATYYCASIYYYEAEYLHWYFDFWGQGALVTVSS
VL: EIQMTQSPTSLSASVGDRVTITCRASEGISKNLSWYQQTPGKAPKLLIYATDNLHSGVPSRFSGSGSGTDFTLTISSLQPEDFATYYCQQGWKWPLTFGGGTKLEIT
As to B5, the “% Block” value in assay [2], in assay [3], in assay [4] and in assay [5] was 100% each time.

B6: AHF17602 (antibody, V domains shown)
VH: DVQLVESGGDLVKPGGSLRLTCVASGLSLTSSSMVWVRQAPGKGLQWVSTIYSNRGTYYTDSVKGRFTISKDNAENTLYLQMNNLKTEDTATYYCASIYYYDADYLHWYFDFWGQGALVTVSS
VL: EIQMTQSPTSLSASVGDRVTITCRASEGIANNLSWYQQTPGKAPKLLIYATSNLHSGVPSRFSGSGSGTDFTLTISSLQPEDFATYYCQQGYKWPLTFGGGTKLEIT
On to B6, for which the “% Block” value in assay [2] was determined as 100%; in assay [3], 100%; in assay [4] it was 99%; in assay [5] it was 100%.

B7: canine 2166 chimeric antibody (antibody, V domains shown)
VH: QVQLKESGPGLVQPSQTLSLTCTVSGLSLTSNSVSWIRQPPGKGLEWMGVIWSNGGTDYNSAIESRLSINRDTSKSQVFLKMNSLQPEDTAMYFCASIYYYDADYLHWYFDFWGPGTMVTVSS
VL: DIQMTQSPASLSASLGETVSIECLASEGISNSLAWYQLKPGKSPQFLIYATSSLQDGVPSRFSGSGSGTQYSLKISGMQPEDEGVYYCQQGYKFPLTFGSGTKLKIKR
notes: also called canine chimeric antibody
B7 yielded an off-rate constant (koff) in assay [6] of 3.5e-06 s⁻¹.
